# Source: PMC7907806, “Ancestral lysosomal enzymes with increased activity harbor therapeutic potential for treatment of Hunter syndrome” (iScience, 2021)
# Biological target: recombinant human mannose-6-phosphate receptor (M6PR) (human, UniProt P11717 41-2491)
# Assay: SPR; Biacore T200, single cycle kinetics mode; IDS enzymes co-expressed with HsFGE on recombinant human M6P receptor; who was immobilised is not given in the source
# Details: both partners purified
row,Kd,Binder
1,32 nM,"human iduronate-2-sulfatase (hIDS), co-expressed with human formylglycine-generating enzyme (HsFGE) (enzyme, cysteine 84 post-translationally modified to formylglycine (fGly); N-linked glycans, iduronate-2-sulfatase (IDS), human; 550-residue protein; also called human IDS; hIDS + HsFGE) SETQANSTTDALNVLLIIVDDLRPSLGCYGDKLVRSPNIDQLASHSLLFQNAFAQQAVCAPSRVSFLTGRRPDTTRLYDFNSYWRVHAGNFSTIPQYFKENGYVTMSVGKVFHPGISSNHTDDSPYSWSFPPYHPSSEKYENTKTCRGPDGELHANLLCPVDVLDVPEGTLPDKQSTEQAIQLLEKMKTSASPFFLAVGYHKPHIPFRYPKEFQKLYPLENITLAPDPEVPDGLPPVAYNPWMDIRQREDVQALNISVPYGPIPVDFQRKIRQSYFASVSYLDTQVGRLLSALDDLQLANSTIIAFTSDHGWALGEHGEWAKYSNFDVATHVPLIFYVPGRTASLPEAGEKLFPYLDPFDSASQLMEPGRQSMDLVELVSLFPTLAGLAGLQVPPRCPVPSFHVELCREGKNLLKHFRFRDLEEDPYLPGNPRELIAYSQYPRPSDIPQWNSDKPSLKDIKIMGYSIRTIDYRYTVWVGFNPDEFLANFSDIHAGELYFVDSDPLQDHNMYNDSQGGDLFQLLMP"
2,26 nM,"IDS-A3, reconstructed ancestral iduronate-2-sulfatase (last common ancestor of primates and rodents), co-expressed with HsFGE (enzyme, cysteine 84 post-translationally modified to formylglycine (fGly); N-linked glycans) SETQANSTTDALNVLLIIVDDLRPSLGCYGDKLVRSPNIDQLASHSLLFQNAFAQQAVCAPSRVSFLTGRRPDTTRLYDFNSYWRVHAGNFSTIPQYFKENGYVTMSVGKVFHPGISSNHSDDSPYSWSFPPYHPSSEKYENTKTCRGPDGELHANLLCPVDVADVPEGTLPDKQSTEQAIRLLEKMKTSASPFFLAVGYHKPHIPFRYPKEFQKLYPLENITLAPDPQVPDGLPPVAYNPWMDIRQREDVQALNISVPYGPIPVDFQRKIRQSYFASVSYLDTQVGHLLSALDDLQLANSTIVAFTSDHGWALGEHGEWAKYSNFDVTTRVPLMFYVPGRTAPLPEAGEKLFPYLDPFDSASELMEPGRQTMDLVELVSLFPTLAGLAGLQVPPRCPVPSFHVELCREGQNLLKHFRFHDLEEDPHLHGNPRELIAYSQYPRPADSPQWNSDKPSLKDIKIMGYSIRTIDYRYTVWVGFNPDEFLANFSDIHAGELYFVDSDPLQDHNMYNDSQGGDLPQSLMP"
3,46 nM,"IDS-A3_T354A, variant of ancestral IDS-A3 with the reversed mutation at position 354, co-expressed with HsFGE (enzyme, cysteine 84 post-translationally modified to formylglycine (fGly); N-linked glycans) SETQANSTTDALNVLLIIVDDLRPSLGCYGDKLVRSPNIDQLASHSLLFQNAFAQQAVCAPSRVSFLTGRRPDTTRLYDFNSYWRVHAGNFSTIPQYFKENGYVTMSVGKVFHPGISSNHSDDSPYSWSFPPYHPSSEKYENTKTCRGPDGELHANLLCPVDVADVPEGTLPDKQSTEQAIRLLEKMKTSASPFFLAVGYHKPHIPFRYPKEFQKLYPLENITLAPDPQVPDGLPPVAYNPWMDIRQREDVQALNISVPYGPIPVDFQRKIRQSYFASVSYLDTQVGHLLSALDDLQLANSTIVAFTSDHGWALGEHGEWAKYSNFDVATRVPLMFYVPGRTAPLPEAGEKLFPYLDPFDSASELMEPGRQTMDLVELVSLFPTLAGLAGLQVPPRCPVPSFHVELCREGQNLLKHFRFHDLEEDPHLHGNPRELIAYSQYPRPADSPQWNSDKPSLKDIKIMGYSIRTIDYRYTVWVGFNPDEFLANFSDIHAGELYFVDSDPLQDHNMYNDSQGGDLPQSLMP"
